Values of other authors, collected in article PMC10019135.

Target: IL-2Rβ/γc heterodimer (Homo sapiens) (UniProt P14784)
Chain of UniProt P14784 (P14784 27-240, chain 1 of 2): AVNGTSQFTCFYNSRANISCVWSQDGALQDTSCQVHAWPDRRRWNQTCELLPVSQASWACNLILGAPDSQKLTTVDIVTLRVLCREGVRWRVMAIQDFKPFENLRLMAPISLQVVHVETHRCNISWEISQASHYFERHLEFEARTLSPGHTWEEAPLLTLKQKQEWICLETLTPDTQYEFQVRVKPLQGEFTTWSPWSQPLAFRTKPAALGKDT
Chain of UniProt P14784 (P31785 23-262, chain 2 of 2, further chain): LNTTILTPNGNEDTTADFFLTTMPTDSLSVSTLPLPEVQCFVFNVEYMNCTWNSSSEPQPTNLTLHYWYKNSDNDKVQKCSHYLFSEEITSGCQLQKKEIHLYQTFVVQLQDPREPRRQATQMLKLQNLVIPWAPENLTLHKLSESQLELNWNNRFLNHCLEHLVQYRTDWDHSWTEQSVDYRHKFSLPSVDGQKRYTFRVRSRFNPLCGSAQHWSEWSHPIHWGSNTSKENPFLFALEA

## IL-2 (from UniProt P60568)
  Kd: 1 nM
